Data: patent US20040082496

Assays:
[1] = system: T1, Mca-Tyr-Val-Ala-Asp-Ala-Pro-(Dnp)Lys-OH (Caspase 1 substrate, Bachem M-2195)
T1 sequence: YVADAPK

[2] = system: T2, Mca-Ala-Pro-(Dnp)Lys-OH (AnaSpec MIPH1)
T2 sequence: APK

Neurotensin (1-13) = Neurotensin (1-13) (UniProt P30990)
[3] = system: T1, Mca-Tyr-Val-Ala-Asp-Ala-Pro-(Dnp)Lys-OH (Caspase 1 substrate, Bachem M-2195); assay: fluorogenic substrate cleavage by purified ACE-2, microtitre plate
[4] = system: T2, Mca-Ala-Pro-(Dnp)Lys-OH (AnaSpec MIPH1); assay: as above

“secreted ACE-2 purified from CHO K1 cell supernatant (expression vector pMD37)” was tested, and the “hydrolysis followed by mass spectroscopy” value ((Des-Arg^9) Bradykinin) was “ACE-2 can hydrolyze des-Arg bradykinin”, the “hydrolysis followed by mass spectroscopy” value [1] was “ACE-2 hydrolysed this substance between the P1 proline and P1′ (DNP)Lys” and the kcat/Km [1] was 42000 M⁻¹ s⁻¹. For the same substance, the “hydrolysis followed by mass spectroscopy” value (Angiotensin I(1-10)) was “When treated with ACE-2, mass spectroscopy data shows that Angiotensin I (1-10) is converted to Angiotensin I (1-9)”, the kcat/Km [2] was 230000 M⁻¹ s⁻¹ and the “hydrolysis followed by mass spectroscopy” value (Neurotensin (1-13)) was “ACE-2 hydrolyzes Neurotensin (1-13) to Neurotensin (1-12)”. For the same substance, the Km [3] was 130 µM and the Km [4] was 340 µM.
